We go through one substance from patent publication US20220193114A1.

For this experiment, the target named is MuSK (wild type, full length, mouse) (mouse) (UniProt Q61006). Put plainly: cell-based or functional assay.
Sequence of UniProt Q61006 (Q61006 22-868): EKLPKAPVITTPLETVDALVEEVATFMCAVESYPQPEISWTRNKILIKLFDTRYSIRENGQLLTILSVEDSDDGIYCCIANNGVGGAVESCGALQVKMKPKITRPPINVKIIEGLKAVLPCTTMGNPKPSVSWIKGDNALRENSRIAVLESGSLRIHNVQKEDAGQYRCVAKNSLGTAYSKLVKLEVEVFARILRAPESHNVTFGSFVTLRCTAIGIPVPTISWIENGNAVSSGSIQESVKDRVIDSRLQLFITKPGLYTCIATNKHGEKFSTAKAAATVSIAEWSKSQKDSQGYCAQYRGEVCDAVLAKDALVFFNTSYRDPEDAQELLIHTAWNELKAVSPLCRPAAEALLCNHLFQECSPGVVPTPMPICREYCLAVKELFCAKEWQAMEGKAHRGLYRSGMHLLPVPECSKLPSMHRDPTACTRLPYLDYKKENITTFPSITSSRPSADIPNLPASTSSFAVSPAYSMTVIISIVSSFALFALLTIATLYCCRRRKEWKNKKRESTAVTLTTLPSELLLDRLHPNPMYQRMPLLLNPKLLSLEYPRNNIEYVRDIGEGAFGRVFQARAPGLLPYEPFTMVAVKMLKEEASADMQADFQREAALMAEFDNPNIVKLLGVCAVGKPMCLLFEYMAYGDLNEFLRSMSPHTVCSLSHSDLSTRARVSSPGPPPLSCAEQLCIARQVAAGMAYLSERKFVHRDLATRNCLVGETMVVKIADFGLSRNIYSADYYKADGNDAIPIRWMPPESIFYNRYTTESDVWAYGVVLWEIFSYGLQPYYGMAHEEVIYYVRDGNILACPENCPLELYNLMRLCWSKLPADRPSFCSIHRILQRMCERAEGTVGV

BMP4 (ligand): the transcription of Wnt11 in response to BMP4 (qRT-PCR, primary myotubes), WT response relative to ΔIg3-MuSK response (fold (WT response / ΔIg3-MuSK response)) stood at 2.2 and the transcriptional response of Dok7 to BMP4 (qRT-PCR, primary myotubes), WT response relative to ΔIg3-MuSK response (fold (WT response / ΔIg3-MuSK response)) was found to be 1.6.
